Test [1] has as its target human CD3 on human T cells (human) (UniProt P07766). Nature of the test: flow cytometry competition on purified human T cells; competitor 2 ug/mL AF488-labelled SP34-2.
The target is the same in test [2]. Nature of the test: saturation binding on human pan T cells, flow cytometry (KdT). For orientation: Flow cytometry measures light scatter and fluorescence of single cells or particles in a stream.
In test [3] the target is Human CD33 ECD-HSA (human). Nature of the test: SPRi off-rate screen (IBIS MX96).
The target of test [4] is Human CD33-V-HSA (human). Nature of the test: SPRi off-rate screen (IBIS MX96).

Broadly, the Kd is the free concentration of one partner at which half of the binding sites on the other are occupied at equilibrium, for simple one-to-one binding. The low end stands for a tighter complex, the high end for a looser complex. A word on the koff: it is the first-order rate constant of dissociation. High values mean fast dissociation, low ones slow dissociation.

Chain of human CD3 on human T cells (human) (P07766 23-207 limits assumed): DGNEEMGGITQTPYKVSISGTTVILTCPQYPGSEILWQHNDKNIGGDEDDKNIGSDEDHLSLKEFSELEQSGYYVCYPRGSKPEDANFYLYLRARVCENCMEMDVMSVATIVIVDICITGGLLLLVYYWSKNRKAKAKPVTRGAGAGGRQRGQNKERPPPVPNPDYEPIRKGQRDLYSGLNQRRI

“SP34-2, commercial mouse anti-human CD3 antibody” showed an IC50 (read off the curve) in test [1] of 1 µg/mL. This substance also showed a Kd in test [2] of 5.6 nM.

Turning to WM53 (antibody), the koff in test [3] came to 0.00237 s⁻¹; in test [4] it was 0.0378 s⁻¹.

Source of the values: patent US20230322924A1.
